The target of this experiment is T1, recombinant human Trop-2-his protein (ACCESSION NO.: NP_002344.2, AA 1-274) (human, UniProt P09758 27-274).
T1 construct: range 27-274; also called recombinant human Trop-2 protein; recombinant human Trop-2 extracellular domain; not shown: his tag
T1 sequence (looked up): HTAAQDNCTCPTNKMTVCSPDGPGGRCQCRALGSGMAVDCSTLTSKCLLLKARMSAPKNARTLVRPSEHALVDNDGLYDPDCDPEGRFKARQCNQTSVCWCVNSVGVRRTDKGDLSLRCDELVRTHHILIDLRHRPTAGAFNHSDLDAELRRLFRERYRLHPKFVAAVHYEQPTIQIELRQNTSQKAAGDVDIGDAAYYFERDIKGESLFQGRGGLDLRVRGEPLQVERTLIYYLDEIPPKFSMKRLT
The experiment can be described thus: ELISA, coated Trop-2-his 0.2 µg/ml. The method, then: Plates were coated with recombinant human Trop-2-his protein (ACCESSION NO.: NP_002344.2, AA 1-274) at a concentration of 0.2 μg/ml overnight at 4° C. and then blocked with 5% BSA for 60 min in a constant temperature incubator at 37° C. Chimeric antibodies ch3-11, ch4-3, ch17-1, ch11-4, and ch23-12 and control antibody Sacituzumab (serial dilutions of 8 concentrations in total obtained through 3-fold serially diluting a solution with an initial concentration of 2 μg/ml) were added into the plates which were then incubated in a constant temperature incubator at 37° C. for 60 min. The plates were washed with PBST 4 times, and 1:5000 dilution of HRP-anti-human Fc (Cat.: 109-035-098, Jackson ImmunoResearch) was added into the plates for reaction for 45 min. TMB (Cat.: ME142, GalaxyBio, Beijing) substrate was added for color development for 15 min, and then 2M HCl was added to stop reaction. Absorbances at 450 nm and at 630 nm (as reference wavelength) were read, and A450 nm-630 nm values of the wells in the plates were recorded.
A general note: ELISA stands for enzyme-linked immunosorbent assay.

B1: Sacituzumab (antibody, human IgG1, kappa, V domains shown)
VH: QVQLQQSGSELKKPGASVKVSCKASGYTFTNYGMNWVKQAPGQGLKWMGWINTYTGEPTYTDDFKGRFAFSLDTSVSTAYLQISSLKADDTAVYFCARGGFGSSYWYFDVWGQGSLVTVSS
VL: DIQLTQSPSSLSASVGDRVSITCKASQDVSIAVAWYQQKPGKAPKLLIYSASYRYTGVPDRFSGSGSGTDFTLTISSLQPEDFAVYYCQQHYITPLTFGAGTKVEIKR
notes: expressed in HEK293; also called control antibody Sacituzumab; Saituzumab
Broadly, the EC50 is the midpoint of the concentration-response curve. Turning to B1, the EC50 stood at 0.271 nM.

The values above are taken from patent publication US20240092930A1 (MABWELL SHANGHAI BIOSCIENCE, published 2024).
